Reference: patent publication US20230203178A1 (SICHUAN KELUN BIOTECH BIOPHARMACEUTICAL, published 2023)

B1: TanCAR 01 (other)
chain: DIVMTQSPLSLPVTPGEPASISCRSSQSLVHSNGNTFLHWYLQKPGQSPQLLIYKVSNRFSGVPDRFSGSGSGTDFTLKISRVEAEDVGVYYCMQSTHVLTFGGGTKLEIKRAGGGGSGGGGSGGGGSQVQLVQSGAEVKKPGASVKVSCKASGYTFTDYLMHWVRQAPGQGLEWMGWINTETGEPTYADDFKGRVTMTRDTSTSTVYMELSSLRSEDTAVYYCAPSLYYGYSWFTYWGQGTLVTVSGGGGSGGGGSGGGGSGGGGSQVTLRESGPALVKPTQTLTLTCTFSGVSLPDYGVSWIRQPPGKALEWLAVIWGSETTYYNSALKSRLTISKDTSKNQVVLTMTNMDPVDTATYYCAKHYYYGGSYAMDYWGQGTTVTVSSGGGGSGGGGSGGGGSEIVLTQSPATLSLSPGERATLSCRASQDISKYLNWYQQKPGQAPRLLIYHTSRLHSGIPDRFSGSGSGTDFTLTISRLEPEDIAVYYCQQGNTLPYTFGQGTKLEITTTPAPRPPTPAPTIASQPLSLRPEACRPAAGGAVHTRGLDFACDIYIWAPLAGTCGVLLLSLVITLYCKRGRKKLLYIFKQPFMRPVQTTQEEDGCSCRFPEEEEGGCELRVKFSRSADAPAYKQGQNQLYNELNLGRREEYDVLDKRRGRDPEMGGKPRRKNPQEGLYNELQKDKMAEAYSEIGMKGERRRGKGHDGLYQGLSTATKDTYDALHMQALPPR
notes: Tandem bispecific chimeric antigen receptor on human T cells; built here from its parts without the signal peptide; also called TanCAR 01 CAR-T
B2: H-CD19 CAR (other)
chain: QVTLRESGPALVKPTQTLTLTCTFSGVSLPDYGVSWIRQPPGKALEWLAVIWGSETTYYNSALKSRLTISKDTSKNQVVLTMTNMDPVDTATYYCAKHYYYGGSYAMDYWGQGTTVTVSSGGGGSGGGGSGGGGSEIVLTQSPATLSLSPGERATLSCRASQDISKYLNWYQQKPGQAPRLLIYHTSRLHSGIPDRFSGSGSGTDFTLTISRLEPEDIAVYYCQQGNTLPYTFGQGTKLEITTTPAPRPPTPAPTIASQPLSLRPEACRPAAGGAVHTRGLDFACDIYIWAPLAGTCGVLLLSLVITLYCKRGRKKLLYIFKQPFMRPVQTTQEEDGCSCRFPEEEEGGCELRVKFSRSADAPAYKQGQNQLYNELNLGRREEYDVLDKRRGRDPEMGGKPRRKNPQEGLYNELQKDKMAEAYSEIGMKGERRRGKGHDGLYQGLSTATKDTYDALHMQALPPR
notes: Chimeric antigen receptor on human T cells; built here from its parts without the signal peptide; also called H-CD19 CAR-T; hCD19 CAR-T
B3: H-BCMA CAR (other)
chain: DIVMTQSPLSLPVTPGEPASISCRSSQSLVHSNGNTFLHWYLQKPGQSPQLLIYKVSNRFSGVPDRFSGSGSGTDFTLKISRVEAEDVGVYYCMQSTHVLTFGGGTKLEIKRAGGGGSGGGGSGGGGSQVQLVQSGAEVKKPGASVKVSCKASGYTFTDYLMHWVRQAPGQGLEWMGWINTETGEPTYADDFKGRVTMTRDTSTSTVYMELSSLRSEDTAVYYCAPSLYYGYSWFTYWGQGTLVTVSTTTPAPRPPTPAPTIASQPLSLRPEACRPAAGGAVHTRGLDFACDIYIWAPLAGTCGVLLLSLVITLYCKRGRKKLLYIFKQPFMRPVQTTQEEDGCSCRFPEEEEGGCELRVKFSRSADAPAYKQGQNQLYNELNLGRREEYDVLDKRRGRDPEMGGKPRRKNPQEGLYNELQKDKMAEAYSEIGMKGERRRGKGHDGLYQGLSTATKDTYDALHMQALPPR
notes: Chimeric antigen receptor on human T cells; built here from its parts without the signal peptide; also called H-BCMA CAR-T; BCMA CAR-T
B4: TanCAR 04 (other)
chain: QVTLRESGPALVKPTQTLTLTCTFSGVSLPDYGVSWIRQPPGKALEWLAVIWGSETTYYNSALKSRLTISKDTSKNQVVLTMTNMDPVDTATYYCAKHYYYGGSYAMDYWGQGTTVTVSSGGGGSGGGGSGGGGSEIVLTQSPATLSLSPGERATLSCRASQDISKYLNWYQQKPGQAPRLLIYHTSRLHSGIPDRFSGSGSGTDFTLTISRLEPEDIAVYYCQQGNTLPYTFGQGTKLEIEAAAKEAAAKEAAAKDIVMTQSPLSLPVTPGEPASISCRSSQSLVHSNGNTFLHWYLQKPGQSPQLLIYKVSNRFSGVPDRFSGSGSGTDFTLKISRVEAEDVGVYYCMQSTHVLTFGGGTKLEIKRAGGGGSGGGGSGGGGSQVQLVQSGAEVKKPGASVKVSCKASGYTFTDYLMHWVRQAPGQGLEWMGWINTETGEPTYADDFKGRVTMTRDTSTSTVYMELSSLRSEDTAVYYCAPSLYYGYSWFTYWGQGTLVTVSTTTPAPRPPTPAPTIASQPLSLRPEACRPAAGGAVHTRGLDFACDIYIWAPLAGTCGVLLLSLVITLYCKRGRKKLLYIFKQPFMRPVQTTQEEDGCSCRFPEEEEGGCELRVKFSRSADAPAYKQGQNQLYNELNLGRREEYDVLDKRRGRDPEMGGKPRRKNPQEGLYNELQKDKMAEAYSEIGMKGERRRGKGHDGLYQGLSTATKDTYDALHMQALPPR
notes: Tandem bispecific chimeric antigen receptor on human T cells; built here from its parts without the signal peptide; also called TanCAR 04 CAR-T
B5: TanCAR 03 (other)
chain: QVTLRESGPALVKPTQTLTLTCTFSGVSLPDYGVSWIRQPPGKALEWLAVIWGSETTYYNSALKSRLTISKDTSKNQVVLTMTNMDPVDTATYYCAKHYYYGGSYAMDYWGQGTTVTVSSGGGGSGGGGSGGGGSEIVLTQSPATLSLSPGERATLSCRASQDISKYLNWYQQKPGQAPRLLIYHTSRLHSGIPDRFSGSGSGTDFTLTISRLEPEDIAVYYCQQGNTLPYTFGQGTKLEIGGGGSGGGGSGGGGSGGGGSDIVMTQSPLSLPVTPGEPASISCRSSQSLVHSNGNTFLHWYLQKPGQSPQLLIYKVSNRFSGVPDRFSGSGSGTDFTLKISRVEAEDVGVYYCMQSTHVLTFGGGTKLEIKRAGGGGSGGGGSGGGGSQVQLVQSGAEVKKPGASVKVSCKASGYTFTDYLMHWVRQAPGQGLEWMGWINTETGEPTYADDFKGRVTMTRDTSTSTVYMELSSLRSEDTAVYYCAPSLYYGYSWFTYWGQGTLVTVSTTTPAPRPPTPAPTIASQPLSLRPEACRPAAGGAVHTRGLDFACDIYIWAPLAGTCGVLLLSLVITLYCKRGRKKLLYIFKQPFMRPVQTTQEEDGCSCRFPEEEEGGCELRVKFSRSADAPAYKQGQNQLYNELNLGRREEYDVLDKRRGRDPEMGGKPRRKNPQEGLYNELQKDKMAEAYSEIGMKGERRRGKGHDGLYQGLSTATKDTYDALHMQALPPR
notes: Tandem bispecific chimeric antigen receptor on human T cells; built here from its parts without the signal peptide; also called TanCAR 03 CAR-T

What was measured:
[1] = target: T1, BCMA expressed on target cells (CHO-K1-BCMA recombinant cell line; MM.1S; RPMI8226) (human, UniProt Q02223 1-184); assay: cell-based or functional assay
T1 sequence (looked up): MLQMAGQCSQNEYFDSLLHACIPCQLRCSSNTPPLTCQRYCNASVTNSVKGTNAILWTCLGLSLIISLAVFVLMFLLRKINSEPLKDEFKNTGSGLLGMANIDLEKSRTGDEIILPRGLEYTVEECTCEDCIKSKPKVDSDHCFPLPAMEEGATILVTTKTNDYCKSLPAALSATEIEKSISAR

[2] = target: T2, CD19 expressed on Nalm6 cells (UniProt P15391 20-556, limits assumed); assay: cell-based or functional assay
T2 sequence (looked up): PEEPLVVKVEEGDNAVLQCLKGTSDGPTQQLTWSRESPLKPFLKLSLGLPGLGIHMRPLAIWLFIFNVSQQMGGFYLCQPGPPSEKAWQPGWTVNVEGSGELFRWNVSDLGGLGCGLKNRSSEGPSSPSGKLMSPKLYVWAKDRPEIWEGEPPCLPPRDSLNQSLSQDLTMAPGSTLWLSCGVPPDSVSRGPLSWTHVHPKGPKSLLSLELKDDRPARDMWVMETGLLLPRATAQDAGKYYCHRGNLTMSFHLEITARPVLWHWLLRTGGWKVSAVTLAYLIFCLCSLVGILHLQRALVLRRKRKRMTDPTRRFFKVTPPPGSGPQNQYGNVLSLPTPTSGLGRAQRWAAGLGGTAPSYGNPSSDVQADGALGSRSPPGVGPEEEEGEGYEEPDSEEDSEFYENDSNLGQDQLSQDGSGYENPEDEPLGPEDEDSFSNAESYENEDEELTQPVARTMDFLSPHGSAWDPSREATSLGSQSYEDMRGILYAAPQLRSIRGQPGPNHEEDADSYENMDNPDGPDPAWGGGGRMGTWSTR

[3] = target: T3, human BCMA (antigen) (human, UniProt Q02223 1-54, limits assumed); assay: flow cytometry of lentivirus-transduced T cells labelled with antigen, 48 h after transduction; percent positive cells
T3 construct: Antigen coupled to the CM5 chip in SPR; also called B-cell maturation antigen; TNFRF17
T3 sequence (looked up): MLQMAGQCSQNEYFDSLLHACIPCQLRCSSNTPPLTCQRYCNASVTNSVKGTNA
Excerpt: (§1) The nucleic acid sequence encoding the CAR was expressed under the drive of a promoter, therefore the lentivirus-transfected T cells could be labeled with an antigen or anti-CD19 antibody and measured by flow cytometry, to reflect the expression level of the CAR on the surface of the T cells.

[4] = target: T4, human CD19 (antigen) (human, UniProt P15391 20-291, limits assumed); assay: flow cytometry of lentivirus-transduced T cells labelled with antigen or anti-CD19 antibody, 48 h after transduction; percent positive cells
T4 sequence (looked up): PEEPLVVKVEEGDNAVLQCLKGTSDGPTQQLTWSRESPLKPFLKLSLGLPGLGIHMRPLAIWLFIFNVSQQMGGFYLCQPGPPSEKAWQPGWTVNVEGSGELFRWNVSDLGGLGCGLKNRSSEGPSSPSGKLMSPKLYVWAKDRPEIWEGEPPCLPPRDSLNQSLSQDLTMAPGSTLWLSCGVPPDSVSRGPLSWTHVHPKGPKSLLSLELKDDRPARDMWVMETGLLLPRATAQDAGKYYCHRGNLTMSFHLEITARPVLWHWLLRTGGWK
Excerpt: as §1

Binder	lysis rate of CHO-K1-BCMA-luc cells by CAR-T cells, ratio 0.25:1 [1] [%]	lysis rate of CHO-K1-BCMA-luc cells by CAR-T cells, ratio 0.5:1 [1] [%]	lysis rate of CHO-K1-BCMA-luc cells by CAR-T cells, ratio 1:1 [1] [%]	lysis rate of CHO-K1-BCMA-luc cells by CAR-T cells, ratio 2:1 [1] [%]	lysis rate of Nalm6-luc cells by CAR-T cells, ratio 0.25:1 [2] [%]	lysis rate of Nalm6-luc cells by CAR-T cells, ratio 0.5:1 [2] [%]	lysis rate of Nalm6-luc cells by CAR-T cells, ratio 1:1 [2] [%]	lysis rate of Nalm6-luc cells by CAR-T cells, ratio 2:1 [2] [%]	Positive rate of binding to BCMA [3] [%]	Positive rate of binding to CD19 [4] [%]
B1	31.3	34.3	63.2	71	46.1	40	56.8	80.6	11.3	10.6
B2					48	55	72.8	86.4	0.98	14.7
B3	0	27	40.7	77.9					26.9	0.31
B4	36.4	52.6	68.9	84.1	72.7	55.8	68.9	84.1	15.9	16.1
B5	17.8	27.6	40.5	52.1	54.3	57.7	72.1	89.1	6.07	8.99
